Measured values: patent publication US11959098B2, “Methods and culture media for culturing pluripotent stem cells” (Technion Research & Development Foundation Limited, priority 2010, dated 2024)
“Also recorded” adds a separate entry of the source.

How the values were obtained:
[1] = tested on: hESCs cultured in suspension; test: Neural differentiation of pluripotent stem cells cultured in suspension; assay type: cell-based, human; details: hESC single cells; retinoic acid (10^−3 M) or Noggin (10 ngr/ml); three weeks after induction
Protocol: Neural differentiation—To induce neural differentiation single cells cultured in suspension were transferred to a medium without bFGF and the IL6RIL6 chimera. Either retinoic acid (10^−3 M) or Noggin (10 ngr/ml) were added for three to seven days. Three weeks after differentiation induction, the cells were plated for staining with fibronectin. The cells were stained for O4 (oligodendrocytes marker), GFAP (Glial fibrillary acidic protein), nestin and β-tubulin.
Differentiation into neuronal cells—Cells from the four tested cell lines (I3, I4, I6 and H9.2) were cultured in suspension with cell clump for at least 25 passages. Then, the factors were removed from the culture medium and 5×10^−5 M Retinoic acid was added for 21 Days. The cells were then transferred to fibronectin coated plates and cultured for additional 5 days before harvesting the cells for analysis.
Human ESCs which are cultured in suspension as single cells are capable of differentiating into the neuronal cell linage—To induce neural differentiation, hESCs which are cultured in suspension as single cells were transferred to a neuronal differentiating medium (without bFGF and the IL6RIL6 chimera) which included either retinoic acid (10^−3 M) or Noggin (10 ngr/ml) as described under “General Materials and Experimental Methods” hereinabove. […]

[2] = tested on: C2 cell line (iPS cell line derived from foreskin fibroblast); test: Endodermal differentiation of pluripotent stem cells cultured in suspension; assay type: cell-based, human
Protocol: Differentiation into endodermal cells—Cells cultured in suspension with cell clumps from C2 cell line (iPS cell line derived from foreskin fibroblast) were cultured in suspension for at least 10 passages. Then the factors were removed from the culture medium and the cells were exposed to 10 ng/ml Activin for 48 hours, in medium containing cAMP increasers such as foreskulin, 8-bromocAMP, GABA, IBMX and DBC. Ten days later the cells were analyzed for endodermal markers. […] As shown in FIGS. 10A-10B the differentiated cells express PDX1, a transcription factor indicating differentiation into endoderm lineage, mainly into β-cells.
C2 cells were cultured for more than 10 passages as single cells in suspension in the pCM100F culture medium. For endoderm differentiation, the bFGF and the IL6RIL6 chimera were removed from the culture medium and activin A at concentration of 10 ng/ml was added for 48 hours in a suspension culture. 10 days after exposure to activin A, the cells were plated on Matrigel™ or HFF (human foreskin fibroblast) matrix, or were cultured in a 3-dimensional culture system (in suspension) and were stained to PDX1.

[3] = C2 clumps, 10 ng/ml for 48 hours with cAMP increasers, ten days later

Molecule	differentiation into neuronal progenitor cells (GFAP, O4, β-Tubulin, Nestin staining) [1]	PDX1 expression (immunofluorescence) [2, 3]	Sox17 expression (quantitative RT-PCR) versus non-treated controls [2, 3]	SOX 17 gene expression (real time PCR) ([2]; C2 single cells, 10 ng/ml for 48 hours in suspension)	PDX1 expression (immunostaining) ([2]; C2 single cells, 10 ng/ml for 48 hours, 10 days after exposure)
Noggin: Noggin (10 ngr/ml) added to induce neural differentiation (protein, UniProt Q13253 28-232, looked up) Noggin: QHYLHIRPAPSDNLPLVDLIEHPDPIFDPKEKDLNETLLRSLLGGHYDPGFMATSPPEDRPGGGGGAAGGAEDLAELDQLLRQRPSGAMPSEIKGLEFSEGLAQGKKQRLSKKLRRKLQMWLWSQTFCPVLYAWNDLGSRFWPRYVKVGSCFSKRSCSVPEGMVCKPSKSVHLTVLRWRCQRRGGQRCGWIPIQYPIISECKCSC	differentiated into neuronal progenitor cells	–	–	–	–
activin A: activin A at concentration of 10 ng/ml added for endoderm differentiation (protein, UniProt P08476 311-426, looked up, Inhibin beta A chain) Inhibin beta A chain: GLECDGKVNICCKKQFFVSFKDIGWNDWIIAPSGYHANYCEGECPSHIAGTSGSSLSFHSTVINHYRMRGHSPFANLKSCCVPTKLRPMSMLYYDDGQNIIKKDIQNMIVEECGCS	–	express PDX1	significant increase in Sox17 expression	an increase could be observed during differentiation from day 2 to 10	all cells which are stained by DAPI (nuclear staining) are also stained with PDX1; also recorded: expression of PDX1 in the cells
